Assay results published in patent US20240116985A1 (published 2024).
Starred links: 1 amine or outer side, 2 acyl side, 3 side chain; linkers in the order of their positions; H or OH if unused. Positions of bridges follow the written chain, without caps; N, C: chain ends. Non-standard residues stand in square brackets, D forms with d. Primed or numbered codes have the meaning given here. B5(16) = 2-amino-2-(pent-4-en-1-yl)hept-6-enoic acid = 2,2-bis(4-pentenyl)glycine (stitching residue), C=CCCCC(CCCC=C)(N[*:1])C(=O)[*:2]; B5(4) = 2,2-bis(4-pentenyl)glycine = 2-amino-2-(pent-4-en-1-yl)hept-6-enoic acid (stitching residue), C=CCCCC(CCCC=C)(N[*:1])C(=O)[*:2]; B5(5) = 2,2-bis(4-pentenyl)glycine, 2-amino-2-(pent-4-en-1-yl)hept-6-enoic acid (stitching residue), C=CCCCC(CCCC=C)(N[*:1])C(=O)[*:2]; B5(21) = 2-amino-2-(pent-4-en-1-yl)hept-6-enoic acid, bis(4-pentenyl)glycine (stitching residue), C=CCCCC(CCCC=C)(N[*:1])C(=O)[*:2]; B5 = 2-amino-2-(pent-4-en-1-yl)hept-6-enoic acid, C=CCCCC(CCCC=C)(N[*:1])C(=O)[*:2]; (NHCyBu)AsnR = N4-cyclobutyl-L-asparagine, O=C(C[C@H](N[*:1])C(=O)[*:2])NC1CCC1; (NHCyPr)AsnR = N4-cyclopropyl-L-asparagine, O=C(C[C@H](N[*:1])C(=O)[*:2])NC1CC1; (NHnPr)AsnR = N4-propyl-L-asparagine, CCCNC(=O)C[C@H](N[*:1])C(=O)[*:2]; (NHMe)AsnR = N4-methyl-L-asparagine, CNC(=O)C[C@H](N[*:1])C(=O)[*:2]; TOMe = O-methyl-L-threonine, CO[C@H](C)[C@H](N[*:1])C(=O)[*:2]; Phe(3,4,5-F3) = N[C@@H](Cc1cc(F)c(F)c(F)c1)C(=O)O; Ala(2-furyl) = N[C@@H](Cc1ccco1)C(=O)O; Bta = N[C@@H](Cc1csc2ccccc12)C(=O)O; αAllylPro = C=CC[C@@]1(C(=O)O)CCCN1; S8 = C=CCCCCCC[C@](C)(N)C(=O)O

T1: full-length beta-Catenin (Uniprot ID P35222) (Homo sapiens (Human), UniProt P35222 1-781)
T1 construct: also called bCat; B-Catenin
T1 sequence: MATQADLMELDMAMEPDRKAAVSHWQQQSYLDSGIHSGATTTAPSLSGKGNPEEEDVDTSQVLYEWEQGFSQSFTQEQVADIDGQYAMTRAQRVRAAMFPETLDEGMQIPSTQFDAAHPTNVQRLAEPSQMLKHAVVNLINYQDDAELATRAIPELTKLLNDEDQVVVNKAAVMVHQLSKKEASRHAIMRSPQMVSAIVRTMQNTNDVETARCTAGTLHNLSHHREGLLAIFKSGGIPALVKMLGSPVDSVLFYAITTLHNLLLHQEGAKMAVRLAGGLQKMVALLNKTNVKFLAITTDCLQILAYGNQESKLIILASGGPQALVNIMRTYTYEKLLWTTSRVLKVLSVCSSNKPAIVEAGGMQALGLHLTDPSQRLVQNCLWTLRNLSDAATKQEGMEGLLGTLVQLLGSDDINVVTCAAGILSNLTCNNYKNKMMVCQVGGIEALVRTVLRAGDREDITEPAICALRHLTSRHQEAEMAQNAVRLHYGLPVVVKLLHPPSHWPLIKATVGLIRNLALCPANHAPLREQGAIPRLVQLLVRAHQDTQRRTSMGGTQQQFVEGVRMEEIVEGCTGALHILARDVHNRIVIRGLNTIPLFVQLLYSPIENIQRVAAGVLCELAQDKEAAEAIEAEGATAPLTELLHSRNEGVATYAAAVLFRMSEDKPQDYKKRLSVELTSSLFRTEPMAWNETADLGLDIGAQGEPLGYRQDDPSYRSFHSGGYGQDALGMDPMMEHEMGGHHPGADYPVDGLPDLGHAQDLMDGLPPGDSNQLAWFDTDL

T2: full-length beta-Catenin (Uniprot ID P35222) (Homo sapiens (Human), UniProt P35222 1-781)
T2 construct: Used full-length in the FP and AlphaScreen assays; also called B-Catenin; bCat
T2 sequence: T1 sequence

T3: full-length beta-Catenin (Uniprot ID P35222) (Homo sapiens (Human), UniProt P35222 1-781)
T3 construct: also called bCat; B-Catenin
T3 sequence: T1 sequence

B1: I-352 (peptide)
peptide: Ac-[αAllylPro]DA[B5(16)]DAAAFV[S8]FWQ-NH2
modifications: staple 1-4, 4-11
notes: Stapled peptide composition; also called Ac-PL3-Asp-Ala-B5-Asp-Ala-Ala-Ala-Phe-Val-S8-Phe-Trp-Gln-NH2
B2: I-348 (peptide)
peptide: XAAXDDAAFVXFWQ
modifications: not fully specified; N-terminal Ac; PL3 at 1; B5 at 4; S8 at 11; C-terminal NH2; stapled PL3-B5 and B5-S8 (olefin metathesis)
notes: Stapled peptide composition; also called Ac-PL3-Ala-Ala-B5-Asp-Asp-Ala-Ala-Phe-Val-S8-Phe-Trp-Gln-NH2
B3: I-328 (peptide)
peptide: Ac-[αAllylPro]DA[B5(4)]DDAA[Ala(2-furyl)]V[S8]FWQ-NH2
modifications: staple 1-4, 4-11; not fully specified; printed as Ac-PL3-Asp-Ala-B5-Asp-Asp-Ala-Ala-2FurA-Val-S8-Phe-Trp-Gln-NH2
notes: Stapled peptide composition; also called Ac-PL3-Asp-Ala-B5-Asp-Asp-Ala-Ala-2FurA-Val-S8-Phe-Trp-Gln-NH2
B4: I-178 (peptide)
peptide: XDAXDEAAFQXFWH
modifications: not fully specified; As printed: Ac-PL3-Asp-Ala-B5-Asp-Glu-Ala-Ala-Phe-Gln-S8-Phe-Trp-His-NH2. N-terminal Ac; C-terminal amide; PL3 (1), B5 (4), S8 (11) stapled by olefin metathesis (PL3-B5 and B5-S8)
notes: Stapled peptide composition
B5: I-179 (peptide)
peptide: XDAXDEAAFQXFWH
modifications: not fully specified; As printed: Ac-PL3-Asp-Ala-B5-Asp-Glu-Ala-Ala-Phe-Gln-S8-Phe-Trp-His-NH2. N-terminal Ac; C-terminal amide; PL3 (1), B5 (4), S8 (11) stapled by olefin metathesis (PL3-B5 and B5-S8)
notes: Stapled peptide composition
B6: I-211 (peptide)
peptide: Ac-[αAllylPro]DA[B5(4)]DEAA[Phe(3,4,5-F3)]V[S8]FWQ-NH2
modifications: staple 1-4, 4-11; not fully specified; printed as Ac-PL3-Asp-Ala-B5-Asp-Glu-Ala-Ala-345FF-Val-S8-Phe-Trp-Gln-NH2
notes: Stapled peptide composition
B7: I-199 (peptide)
peptide: Ac-[αAllylPro]NA[B5]DEAAFV[S8]FWQ-NH2
modifications: staple 1-4, 4-11
notes: Stapled peptide composition; this is the earlier-eluting isomer composition
B8: I-200 (peptide)
peptide: Ac-[αAllylPro]NA[B5(4)]DEAAFV[S8]FWQ-NH2
modifications: staple 1-4, 4-11
notes: Stapled peptide composition; this is the later-eluting isomer composition
B9: I-563 (peptide)
peptide: XDLXDDAAFNXFXQ
modifications: not fully specified; Ac-PL3-Asp-Leu-B5-Asp-Asp-Ala-Ala-Phe-Asn-S8-Phe-BztA-Gln-NH2; N-terminal acetyl, C-terminal amide; non-natural: PL3(1), B5(4), S8(11), BztA(13); staples PL3(1)-B5(4) and B5(4)-S8(11)
B10: I-542 (peptide)
peptide: XDTXDEAAFQXFXQ
modifications: not fully specified; Ac-PL3-Asp-TOMe-B5-Asp-Glu-Ala-Ala-Phe-Gln-S8-Phe-BztA-Gln-NH2; N-terminal acetyl, C-terminal amide; non-natural: PL3(1), TOMe(3), B5(4), S8(11), BztA(13); staples PL3(1)-B5(4) and B5(4)-S8(11)

The binders below were run against T1, full-length beta-Catenin (Uniprot ID …) (assay: fluorescence polarization competition vs 5FAM-TCF4(10-53) on full-length beta-catenin).
Protocol: (§1) The plate was incubated protected from light for 60 minutes at 20° C. prior to read. Reads were performed on a CLARIOstar plate reader (BMG Labtech) in duplicate, and data were fitted to a 1:1 binding model with hill slope using an in-house script. All provided concentrations are final concentrations.

| IC50 [µM] | Binder |
| --- | --- |
| 5 | B1 |
| 5 | B2 |
| 1.91 | B3 |

What follows are binders tested against T2, full-length beta-Catenin (Uniprot ID …) (assay: AlphaScreen (nickel chelate) competition; full-length beta-catenin + biotin-TCF4(10-53) probe as competitor; peptide titrated).
Protocol: as §1, with “Equal volume of the titrated peptide was added to the” for “The”, “and” for “was”, “incubated for 15 minutes at 20° C. Then 4 uL of donor and 4 uL acceptor beads at 10 ug/mL were added to the plate, for a 16 uL reaction pool and” for “incubated”

| EC50 [µM] | Binder |
| --- | --- |
| 0.152 | B4 |
| 0.549 | Ac-[αAllylPro]DI[B5(5)]DEAAFV[S8]FWH-NH2 (staple 1-4, 4-11, Stapled peptide composition) [I-177] |
| 0.152 | B5 |
| 0.549 | Ac-[αAllylPro]DI[B5(5)]DEAAFV[S8]FWH-NH2 (staple 1-4, 4-11, Stapled peptide composition) [I-176] |

These binders were tested against T2, full-length beta-Catenin (Uniprot ID …) (assay: fluorescence polarization competition; full-length beta-catenin + 5FAM-TCF4(10-53) probe as competitor; peptide titrated).
Protocol: as §1

| EC50 [µM] | Binder |
| --- | --- |
| 5 | Ac-[αAllylPro]DA[B5(4)]DEAA[Phe(3,4,5-F3)]V[S8]FWQ-NH2 (staple 1-4, 4-11, Stapled peptide composition) [I-212] |
| 1.63 | B4 |
| 1.99 | Ac-[αAllylPro]DI[B5(5)]DEAAFV[S8]FWH-NH2 (staple 1-4, 4-11, Stapled peptide composition) [I-177] |
| 5 | B6 |
| 1.63 | B5 |
| 1.99 | Ac-[αAllylPro]DI[B5(5)]DEAAFV[S8]FWH-NH2 (staple 1-4, 4-11, Stapled peptide composition) [I-176] |
| 5 | B7 |
| 5 | B8 |

What follows are binders tested against T3, full-length beta-Catenin (Uniprot ID …) (assay: fluorescence polarization competition; displacement of 5FAM-TCF4(10-53) from full-length beta-catenin).
Protocol: as §1

| EC50 [µM] | Binder |
| --- | --- |
| 5 | Ac-[αAllylPro]DA[B5(21)][(NHMe)AsnR]DAAFV[S8]F[Bta]Q-NH2 (staple 1-4, 4-11, Stapled (stitched) peptide composition) [I-540] |
| 5 | Ac-[αAllylPro]DA[B5(21)][(NHnPr)AsnR]DAAFV[S8]F[Bta]Q-NH2 (staple 1-4, 4-11, Stapled (stitched) peptide composition) [I-537] |
| 5 | Ac-[αAllylPro]DA[B5(21)][(NHCyBu)AsnR]DAAFV[S8]F[Bta]Q-NH2 (staple 1-4, 4-11, Stapled (stitched) peptide composition) [I-539] |
| 0.019 | B9 |
| 5 | Ac-[αAllylPro]DA[B5(21)][(NHCyPr)AsnR]DAAFV[S8]F[Bta]Q-NH2 (staple 1-4, 4-11, Stapled (stitched) peptide composition) [I-538] |
| 0.18 | Ac-[αAllylPro]D[TOMe][B5(21)]DEAAFQ[S8]F[Bta]Q-NH2 (staple 1-4, 4-11) [I-541] |
| 0.109 | B10 |
